This is an account of results in patent publication US6844192 (WAKE FOREST UNIVERSITY, dated 2005).

Substitutions are numbered along the chain they refer to. Names and notes keep the numbering of the source.

Experiment [1] deals with adenovirus E1B-55 kDa protein (Ad5) (UniProt P03243). Nature of the experiment: cell-based or functional assay.
The target of experiment [2] is T1, adenovirus E1B-55 kDa protein (Ad5, UniProt P03243 1-496).
T1 sequence: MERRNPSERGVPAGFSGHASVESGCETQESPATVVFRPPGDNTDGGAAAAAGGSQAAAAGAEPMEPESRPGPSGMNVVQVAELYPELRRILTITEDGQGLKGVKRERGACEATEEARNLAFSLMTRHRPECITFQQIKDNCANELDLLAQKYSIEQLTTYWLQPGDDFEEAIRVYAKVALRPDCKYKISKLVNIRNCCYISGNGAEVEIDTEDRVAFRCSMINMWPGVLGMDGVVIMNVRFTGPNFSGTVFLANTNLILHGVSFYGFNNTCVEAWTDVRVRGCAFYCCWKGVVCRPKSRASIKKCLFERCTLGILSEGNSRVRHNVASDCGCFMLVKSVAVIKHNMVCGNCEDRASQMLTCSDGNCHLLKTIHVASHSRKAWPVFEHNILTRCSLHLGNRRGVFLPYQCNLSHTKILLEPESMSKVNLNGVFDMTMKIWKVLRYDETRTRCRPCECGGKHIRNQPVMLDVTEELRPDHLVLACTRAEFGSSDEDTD
The experiment can be described thus: cell-based or functional assay.

For the molecule “E4orf6 variant R240,244,251A (from UniProt P03239 1-294)”, in experiment [1], the HeLa cells in which the E1B-55 kDa protein was retained was > 62 % of cells, the cells in which the E1B-55 kDa protein was relocalized to the nucleus was 60 % of cells and the value for nuclear E1B-55 kDa protein retention was 62%. For “E4orf6 variant R240,251A (from UniProt P03239 1-294)”, the cells with the E1B-55 kDa protein retained in the nucleus in experiment [1] is 70 % of cells. On to “E4orf6 variant R240A (from UniProt P03239 1-294)”, for which, in experiment [1], the cells with the E1B-55 kDa protein retained in the nucleus was 90 % of cells. As to “E4orf6 variant R240E (from UniProt P03239 1-294)”, in experiment [1], the cells with predominantly cytoplasmic E1B-55 kDa protein is 46 % of cells, the cells with predominantly nuclear E1B-55 kDa protein was 55 % of cells and the cells with uniform distribution of the E1B-55 kDa protein is 4 % of cells. Take “E4orf6 variant R244E (from UniProt P03239 1-294)”: in experiment [1], the cells with predominantly nuclear E1B-55 kDa protein was 85 % of cells and the value for nuclear E1B-55 kDa protein retention turned out to be 91%. For the molecule “E4orf6 variant R248,251A (from UniProt P03239 1-294)”, in experiment [1], the HeLa cells in which the E1B-55 kDa protein was retained is > 62 % of cells, the cells with the E1B-55 kDa protein retained in the nucleus is 82 % of cells and the value for nuclear E1B-55 kDa protein retention is 80%. Regarding “E4orf6 variant R248E (from UniProt P03239 1-294)”, the cells with predominantly nuclear E1B-55 kDa protein in experiment [1] was 85 % of cells. As for “E4orf6 variant R251A (from UniProt P03239 1-294)”, in experiment [1], the HeLa cells in which the E1B-55 kDa protein was retained is > 62 % of cells and the value for nuclear E1B-55 kDa protein retention was 99%. As to “E4orf6 variant R251E (from UniProt P03239 1-294)”, in experiment [1], the cells with predominantly nuclear E1B-55 kDa protein was 85 % of cells.

B1: wild-type adenovirus E4orf6 protein (other)
chain: MTTSGVPFGMTLRPTRSRLSRRTPYSRDRLPPFETETRATILEDHPLLPECNTLTMHNVSYVRGLPCSVGFTLIQEWVVPWDMVLTREELVILRKCMHVCLCCANIDIMTSMMIHGYESWALHCHCSSPGSLQCIAGGQVLASWFRMVVDGAMFNQRFIWYREVVNYNMPKEVMFMSSVFMRGRHLIYLRLWYDGHVGSVVPAMSFGYSALHCGILNNIVVLCCSYCADLSEIRVRCCARRTRRLMLRAVRIIAEETTAMLYSCRTERRRQQFIRALLQHHRPILMHDYDSTPM
As to B1, the “value for nuclear E1B-55 kDa protein retention” value (“value” below) in experiment [2] turned out to be 100%.

B2: E4orf6 variant R241A (other)
chain: B1 chain with R241A
Turning to B2, in experiment [2], the “value” value is 72%.

B3: E4orf6 variant R241E (other)
chain: B1 chain with R241E
B3: in experiment [2], the “value” value is 0.8%.
